Results: article PMC2782368 (Journal of molecular biology, 2009)
Substitutions are numbered along the chain they refer to.

T1: murine core RAG1 fused to maltose-binding protein, wild type (murine), P15919
T1 chain: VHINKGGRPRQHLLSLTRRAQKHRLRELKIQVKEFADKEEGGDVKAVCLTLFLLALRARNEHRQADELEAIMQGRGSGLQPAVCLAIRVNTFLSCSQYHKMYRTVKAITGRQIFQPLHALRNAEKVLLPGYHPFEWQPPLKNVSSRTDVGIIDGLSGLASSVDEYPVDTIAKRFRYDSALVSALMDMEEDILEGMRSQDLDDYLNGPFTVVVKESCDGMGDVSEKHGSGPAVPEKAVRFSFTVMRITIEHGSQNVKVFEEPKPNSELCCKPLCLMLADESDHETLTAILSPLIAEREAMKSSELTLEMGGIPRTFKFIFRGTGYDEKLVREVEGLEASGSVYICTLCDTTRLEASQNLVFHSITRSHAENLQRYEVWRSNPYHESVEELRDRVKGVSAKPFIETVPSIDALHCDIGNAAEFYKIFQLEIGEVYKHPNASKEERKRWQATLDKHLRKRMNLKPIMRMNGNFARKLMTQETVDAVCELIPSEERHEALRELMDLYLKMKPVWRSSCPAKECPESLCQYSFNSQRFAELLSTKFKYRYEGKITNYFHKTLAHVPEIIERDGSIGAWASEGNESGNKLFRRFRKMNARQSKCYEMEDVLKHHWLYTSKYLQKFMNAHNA

T2: mR1(core) H942A mutant (murine, UniProt P15919 384-1008, H942A)
T2 sequence (looked up): T1 chain with H559A

T3: mR1(core) E962A mutant (murine, UniProt P15919 384-1008, E962A)
T3 sequence (looked up): T1 chain with E579A

T4: mR1(core) H937A mutant (murine, UniProt P15919 384-1008, H937A)
T4 sequence (looked up): T1 chain with H554A

T5: murine core RAG1 fused to maltose-binding protein, wild type (murine, UniProt P15919 384-1008)
T5 sequence (looked up): T1 chain

B1: murine core RAG1 fused to maltose-binding protein, wild type, P15919 384-1008 (domain or fragment)
chain: T1 chain
B2: core RAG2 fused to glutathione S-transferase (domain or fragment, murine, UniProt P21784 1-387, looked up)
chain: MSLQMVTVGHNIALIQPGFSLMNFDGQVFFFGQKGWPKRSCPTGVFHFDIKQNHLKLKPAIFSKDSCYLPPLRYPATCSYKGSIDSDKHQYIIHGGKTPNNELSDKIYIMSVACKNNKKVTFRCTEKDLVGDVPEPRYGHSIDVVYSRGKSMGVLFGGRSYMPSTQRTTEKWNSVADCLPHVFLIDFEFGCATSYILPELQDGLSFHVSIARNDTVYILGGHSLASNIRPANLYRIRVDLPLGTPAVNCTVLPGGISVSSAILTQTNNDEFVIVGGYQLENQKRMVCSLVSLGDNTIEISEMETPDWTSDIKHSKIWFGSNMGNGTIFLGIPGDNKQAMSEAFYFYTLRCSEEDLSEDQKIVSNSQTSTEDPGDSTPFEDSEEFCFS

Experiments:
[1] = target: T1, murine core RAG1 fused to …; test: SEC; details: remark: other sources report otherwise
[2] = target: T2, mR1(core) H942A mutant; test: pull-down
[3] = target: T3, mR1(core) E962A mutant; test: pull-down
[4] = target: T4, mR1(core) H937A mutant; test: pull-down
[5] = target: T5, murine core RAG1 fused to …; test: pull-down

Binder	stoichiometry N [1]	binding result [2]	binding result [3]	binding result [4]	binding result [5]
B1	2	–	–	–	–
B2	–	binds	binds	binds	binds
